The chains are these.
B1: CPEB3 Ribozyme (parent)
chain: UAACAGGGGGCCACAGCAGAAGCGUUCACGUCGCAGCCCCUGUCAGAUUCUGGUGAAUCUGCGAAUUCUGCUGUAUAUCUC

In this data set the parent is B1. Put plainly: self-cleavage, relative activity (ratio to wild type); higher = more cleavage; in vitro, sequencing. Put shortly:
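Relative activity compares each variant's cleaved/total read fraction with that of the unmutated ribozyme. To get these fractions, barcoded CPEB3 ribozyme libraries from rounds of error-prone PCR were transcribed with T7 RNA polymerase for 5 hours at 37°C and then given 15 min of DNase I treatment before EDTA was added. The RNAs were reverse transcribed with template switching and sequenced on Illumina, and DNA sequencing linked barcodes to variants. A minimum of 5 reads applied, and three batches were averaged.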
UAACAGGGGGCCACAGCAGAAGCGUUCGCGUCGCAGCCCCUGUCAGAUUCUGGUGAAUCUGGGAAUUCUGCUGUAUAUCUC [A28G C62G]: the self-cleavage is 0.21.
The figure for UAACAGGGGGCCACAGCAGAAGCGUUCGCGUCGCAGCCCCUGUCAGAUUCUGGUGAAUCUACGAAUUCUGCUGUAUAUCUC [A28G G61A] is 0.38.
The figure for UAACAGGGGGCCACAGCAGAAGCGUUCGCGUCGCAGCCCCUGUCAGAUUCUGGUGAAUCUCCGAAUUCUGCUGUAUAUCUC [A28G G61C] is 0.15; for UAACAGGGGGCCACAGCAGAAGCGUUCGCGUCGCAGCCCCUGUCAGAUUCUGGUGAAUCUUCGAAUUCUGCUGUAUAUCUC [A28G G61U] it is 0.5; for UAACAGGGGGCCACAGCAGAAGCGUUCGCAUCGCAGCCCCUGUCAGAUUCUGGUGAAUCUGCGAAUUCUGCUGUAUAUCUC [A28G G30A] it is 0.2.
For UAACAGGGGGCCACAGCAGAAGCGUUCGCCUCGCAGCCCCUGUCAGAUUCUGGUGAAUCUGCGAAUUCUGCUGUAUAUCUC [A28G G30C], the self-cleavage turned out to be 0.32.
For the variant UAACAGGGGGCCACAGCAGAAGCGUUCGCGUCGCAUCCCCUGUCAGAUUCUGGUGAAUCUGCGAAUUCUGCUGUAUAUCUC [A28G G36U], the self-cleavage stood at 0.15.
For UAACAGGGGGCCACAGCAGAAGCGUUCGCGUCGCAACCCCUGUCAGAUUCUGGUGAAUCUGCGAAUUCUGCUGUAUAUCUC [A28G G36A] the value was 0.15; for UAACAGGGGGCCACAGCAGAAGCGUUCGCGUCGCAGACCCUGUCAGAUUCUGGUGAAUCUGCGAAUUCUGCUGUAUAUCUC [A28G C37A], 0.21; for UAACAGGGGGCCACAGCAGAAGCGUUCGCGUCGCAGUCCCUGUCAGAUUCUGGUGAAUCUGCGAAUUCUGCUGUAUAUCUC [A28G C37U], 0.43.
For UAACAGGGGGCCACAGCAGAAGCGUUCGCGUCGCAGCCCCUGUCAGAUUCUGGUGAAUAUGCGAAUUCUGCUGUAUAUCUC [A28G C59A] the value was 0.2; for UAACAGGGGGCCACAGCAGAAGCGUUCGCGUCGCAGCCCCUGUCAGAUUCUGGUGAAUUUGCGAAUUCUGCUGUAUAUCUC [A28G C59U], 0.54.
On to UAACAGGGGGCCACAGCAGAAGCGUUCGCGUCGCAGCCCCUGUCAGAUUCUGGUGAAUCUGCGUAUUCUGCUGUAUAUCUC [A28G A64U], for which the self-cleavage is 0.24.
For UAACAGGGGGCCACAGCAGAAGCGUUCGCGUCGCAGCCCCUGUCAGAUUCUGGUGAAUCUGCGAAUUCUGCUCUAUAUCUC [A28G G73C] the value was 1.29; for UAACAGGGGGCCACAGCAGAAGCGUUCGCGUCGCAGCCCCUGUCAGAUUCUGGUGAAUCUGCGAAUUCUGCUAUAUAUCUC [A28G G73A], 1.16; for UAACAGGGGGCCACAGCAGAAGCGUUCGCGUCGCAGCCCCUGUCAGAUUCUGGUGAAUCUGCGAAUUCUGCUGUAUAUUUC [A28G C79U], 0.88.
The figure for UAACAGGGGGCCACAGCAGAAGCGUUCGCGUCGCAGCCCCUGUCAGAUUCUGGUAAAUCUGCGAAUUCUGCUGUAUAUCUC [A28G G55A] is 0.33; for UAACAGGGGGCCACAGCAGAAGCGUUCGCGUCGCAGCCCCUGUCAGAUUCUGGUUAAUCUGCGAAUUCUGCUGUAUAUCUC [A28G G55U] it is 0.68.
Take UAACAGGGGGCCACAGCAGAAGCGUUCGCGUCGCAGCCCCUGUCAGAUUCUGGUCAAUCUGCGAAUUCUGCUGUAUAUCUC [A28G G55C]: the self-cleavage was 0.39.
For UAACAGGGGGCCACAGCAGAAGCGUUCGCGUCGCAGCCCCUGUCAGAUUCUGGUGAAUCUGCGAAUUCUGCUGUUUAUCUC [A28G A75U] the value was 0.73.
The figure for UAACAGGGGGCCACAGCAGAAGCGUUCGCGUCGCAGCCCCUGUCAGAUUCUGGUGAAUCUGCGAAUUCUGCUGUGUAUCUC [A28G A75G] is 0.53.
As to UAACAGGGGGCCACAGCAGAAGCGUUCGCGUCGCAGCCCCUGUCAGAUUCUGGUGAAUCUGCGAGUUCUGCUGUAUAUCUC [A28G A65G], the self-cleavage stood at 0.33.
Regarding UAACAGGGGGCCACAGCAGAAGCGUUCGCGUCGCAGCCCCUGUCAGAUUCUGGUGAAUCUGCGACUUCUGCUGUAUAUCUC [A28G A65C], the self-cleavage is 0.21.
The figure for UAACAGGGGGCCACAGCAGAAGCGUUCGCGUCGCAGCCCCUGUCAGAUUCUGGUGAAUCUGCGAUUUCUGCUGUAUAUCUC [A28G A65U] is 0.15; for UAACAGGGGGCCACAGCAGAAGCGUUCGCGUCGCAGCACCUGUCAGAUUCUGGUGAAUCUGCGAAUUCUGCUGUAUAUCUC [A28G C38A] it is 0.29; for UAACAGGGGGCCACAGCAGAAGCGUUCGCGUCGCAGCGCCUGUCAGAUUCUGGUGAAUCUGCGAAUUCUGCUGUAUAUCUC [A28G C38G] it is 0.25.
As to UAACAGGGGGCCACAGCAGAAGCGUUCGCGUCGCAGCUCCUGUCAGAUUCUGGUGAAUCUGCGAAUUCUGCUGUAUAUCUC [A28G C38U], the self-cleavage came to 0.54.
The figure for UAACAGGGGGCCACAGCAGAAGCGUUCGCGUCGCAGCCCCUGUCAGAUUCUGGUGAAUCUGCGAAUUCUACUGUAUAUCUC [A28G G70A] is 0.23; for UAACAGGGGGCCACAGCAGAAGCGUUCGCGUCGCAGCCCCUGUCAGAUUCUGGUGAAUCUGCGAAUUCUGCUGUAUAUCUU [A28G C81U] it is 0.75; for UAACAGGGGGCCACAGCAGAAGCGUUCGCGUCGCAGCCCCUGUCAGAUUCUGGUGAAUCUGCGAAUUCUGCUGUAUAUCUA [A28G C81A] it is 1.
For the variant UAACAGGGGGCCACAGCAGAAGCGUUCGCGUCGCAGCCCCUGUCAGAUUCUGGUGAAUCUGCGAAUUCUGCUGUAUAUCUG [A28G C81G], the self-cleavage turned out to be 0.42.
UAACAGGGGGCCACAGCAGAAGCGUUCGCGUCGCAGCCCCUGUCAGAUUCUGGUGAAUCUGCGAAUUUUGCUGUAUAUCUC [A28G C68U]: the self-cleavage worked out at 0.48.
For UAACAGGGGGCCACAGCAGAAGCGUUCGCGUCGCAGCCCCUGUCAGAUUCUGGUGAAUCUGCGAAUUGUGCUGUAUAUCUC [A28G C68G] the value was 0.14; for UAACAGGGGGCCACAGCAGAAGCGUUCGCGUCGCAGCCCCUGUCAGAUUCUGGUGAAUCUGCGAAUUAUGCUGUAUAUCUC [A28G C68A], 0.17.

(Values after the RNAGym collection of RNA variant scans (doi:10.1093/nar/gkz1192).)
